The source of these data is EP1068241B1.

The target in one experiment is CD20 antigen (UniProt P11836). Put plainly: flow cytometry on WIL2-S cells.
Experiment [1] addresses FcγRI α subunit-GST fusion (UniProt P12314). As to the kind of experiment: ELISA on coated FcγRI α subunit-GST fusion, IgG at 10 µg/ml. (An ELISA detects its analyte on a solid surface through an enzyme-linked reagent.)
Experiment [2] deals with FcγRIIIa α subunit ECD-6His-GST fusion protein (UniProt P08637). As to the kind of experiment: ELISA, E27:chimeric IgE:VEGF immune complex on coated receptor.
Sequence of FcγRIIIa α subunit ECD-6His-GST fusion protein (P08637 other isoform, or with tags, fused parts or gaps): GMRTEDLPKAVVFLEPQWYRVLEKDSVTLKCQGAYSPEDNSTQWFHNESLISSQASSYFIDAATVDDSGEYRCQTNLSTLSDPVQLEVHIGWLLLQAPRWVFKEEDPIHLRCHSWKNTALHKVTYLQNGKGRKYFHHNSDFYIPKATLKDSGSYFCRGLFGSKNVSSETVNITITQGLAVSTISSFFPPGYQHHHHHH
Experiment [3] deals with FcγRIIa α subunit ECD-6His-GST fusion protein (UniProt P12318). Described as above.
Sequence of FcγRIIa α subunit ECD-6His-GST fusion protein (P12318 other isoform, or with tags, fused parts or gaps): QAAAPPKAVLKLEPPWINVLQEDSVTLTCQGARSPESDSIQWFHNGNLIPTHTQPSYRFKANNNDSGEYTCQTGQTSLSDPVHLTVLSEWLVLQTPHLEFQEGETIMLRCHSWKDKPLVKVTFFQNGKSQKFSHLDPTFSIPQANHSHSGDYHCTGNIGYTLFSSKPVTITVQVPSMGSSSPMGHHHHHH
The target in experiment [4] is FcγRIIb α subunit ECD-6His-GST fusion protein (UniProt P31994). The description is as above.
Sequence of FcγRIIb α subunit ECD-6His-GST fusion protein (P31994 other isoform, or with tags, fused parts or gaps): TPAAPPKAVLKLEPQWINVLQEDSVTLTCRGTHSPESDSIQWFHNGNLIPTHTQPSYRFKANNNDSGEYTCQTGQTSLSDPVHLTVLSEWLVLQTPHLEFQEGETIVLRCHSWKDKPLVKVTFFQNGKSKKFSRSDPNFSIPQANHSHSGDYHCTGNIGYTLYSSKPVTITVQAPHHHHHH
For experiment [5], the target named is human C1q (human) (UniProt P02745). As to the kind of experiment: cell-based or functional assay.
Sequence of human C1q (human) (P02745 23-245 limits assumed, chain 1 of 3): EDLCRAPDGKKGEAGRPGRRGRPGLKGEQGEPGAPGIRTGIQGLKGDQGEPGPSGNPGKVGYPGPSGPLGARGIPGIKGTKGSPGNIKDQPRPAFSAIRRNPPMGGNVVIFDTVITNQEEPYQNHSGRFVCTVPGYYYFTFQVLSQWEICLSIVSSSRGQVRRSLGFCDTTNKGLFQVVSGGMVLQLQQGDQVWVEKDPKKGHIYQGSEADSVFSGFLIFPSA
Sequence of human C1q (human) (P02746 28-253 limits assumed, chain 2 of 3, further chain): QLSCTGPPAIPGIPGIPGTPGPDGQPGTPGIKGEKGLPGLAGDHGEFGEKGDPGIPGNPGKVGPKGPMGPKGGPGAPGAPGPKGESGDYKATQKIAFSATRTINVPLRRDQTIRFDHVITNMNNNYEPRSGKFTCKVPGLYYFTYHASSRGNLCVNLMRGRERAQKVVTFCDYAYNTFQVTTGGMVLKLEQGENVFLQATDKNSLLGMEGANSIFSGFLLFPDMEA
Sequence of human C1q (human) (P02747 29-245 limits assumed, chain 3 of 3, further chain): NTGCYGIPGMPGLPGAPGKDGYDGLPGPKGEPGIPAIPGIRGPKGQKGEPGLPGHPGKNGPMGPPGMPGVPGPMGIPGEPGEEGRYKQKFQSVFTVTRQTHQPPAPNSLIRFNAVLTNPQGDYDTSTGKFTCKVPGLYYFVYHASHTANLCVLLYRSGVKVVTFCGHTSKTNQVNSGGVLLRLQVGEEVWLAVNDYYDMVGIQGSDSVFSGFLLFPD
For experiment [6] the target is unchanged. As to the kind of experiment: C1q binding ELISA.

Sequence of CD20 antigen (P11836 whole entry, the tested form may be a part): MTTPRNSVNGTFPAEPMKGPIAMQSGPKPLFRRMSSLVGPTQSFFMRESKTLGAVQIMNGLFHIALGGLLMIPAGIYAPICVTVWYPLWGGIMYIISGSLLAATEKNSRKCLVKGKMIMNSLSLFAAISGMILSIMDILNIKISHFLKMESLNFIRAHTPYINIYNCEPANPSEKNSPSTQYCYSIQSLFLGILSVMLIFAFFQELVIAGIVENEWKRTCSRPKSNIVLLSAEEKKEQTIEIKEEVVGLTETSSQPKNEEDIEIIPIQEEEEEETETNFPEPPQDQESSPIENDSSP
Sequence of FcγRI α subunit-GST fusion (P12314 other isoform, or with tags, fused parts or gaps): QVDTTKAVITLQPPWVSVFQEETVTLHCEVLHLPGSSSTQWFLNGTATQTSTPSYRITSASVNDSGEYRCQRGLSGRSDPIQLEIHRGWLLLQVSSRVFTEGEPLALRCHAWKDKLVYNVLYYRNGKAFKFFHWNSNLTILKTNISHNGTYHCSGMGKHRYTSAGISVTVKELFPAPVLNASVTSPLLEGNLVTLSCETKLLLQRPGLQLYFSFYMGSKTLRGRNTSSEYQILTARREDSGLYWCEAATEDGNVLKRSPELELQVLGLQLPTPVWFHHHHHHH

With C2B8 mutant P329A (antibody), the EC50 as percentage of the wild type with CD20 antigen came out at 112%.

E27 anti-IgE antibody mutant P331A: the binding as percentage of the wild type in experiment [1] was 74%; in experiment [2], 73%; in experiment [3] it was 86%; in experiment [4] it was 58%.

For the substance E27 anti-IgE antibody mutant K322A, the binding as percentage of the wild type was 90% in experiment [1], 90% in experiment [2], 109% in experiment [3] and 101% in experiment [4].

Take wild type E27 anti-IgE antibody: the binding as percentage of the wild type in experiment [1], in experiment [2], in experiment [3] and in experiment [4] was 100% in each case.

With C2B8 mutant E318A (antibody), the CDC (percentage of the wild type) with human C1q (human) [5] stood at 108%. Moreover, in the experiment with human C1q (human) [6], the decrease in binding against wild type C2B8 amounted to 30%. This substance had an EC50 as percentage of the wild type with CD20 antigen of 89%.

C2B8 mutant K320A (antibody) yielded a CDC (percentage of the wild type) with human C1q (human) [5] of 108%. In addition, the EC50 as percentage of the wild type in the experiment with CD20 antigen was found to be 102%.

As for E27 anti-IgE antibody mutant E318A, the binding as percentage of the wild type was 93% in experiment [1], 104% in experiment [2], 113% in experiment [3] and 106% in experiment [4].

As for E27 anti-IgE antibody mutant P329A, the binding as percentage of the wild type in experiment [1] amounted to 104%; in experiment [2], 85%.

In the case of E27 anti-IgE antibody mutant K320A, the binding as percentage of the wild type stood at 102% in experiment [1], 72% in experiment [2] and 83% in experiment [4].

C2B8 mutant P331A (antibody) showed a fold lower binding than wild type C2B8 with human C1q (human) [6] of 60 fold. Moreover, the EC50 as percentage of the wild type in the experiment with CD20 antigen came to 103%.
